From publication PMC11077590, “The concerted action of SEPT9 and EPLIN modulates the adhesion and migration of human fibroblasts” (Life Science Alliance, 2024) come the findings set out here.

In test [1] the target is T1, His6-SEPT9 ΔNΔC (G domain, aa 295-567) (UniProt Q9UHD8 295-567).
T1 construct: also called ΔNΔC-SEPT9; source: E. coli BL21DE3, purified (HisTrap IMAC, buffered in PBS by PD10)
T1 sequence (looked up): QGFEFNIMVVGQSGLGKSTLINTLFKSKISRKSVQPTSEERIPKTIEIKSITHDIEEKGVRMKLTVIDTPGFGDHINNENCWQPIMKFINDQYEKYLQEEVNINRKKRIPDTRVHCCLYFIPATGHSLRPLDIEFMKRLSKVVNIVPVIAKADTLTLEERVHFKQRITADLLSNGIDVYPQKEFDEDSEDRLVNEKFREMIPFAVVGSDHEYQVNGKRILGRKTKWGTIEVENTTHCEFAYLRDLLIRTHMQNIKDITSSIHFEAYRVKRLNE
In words: pull-down; GST fusion from E. coli extract held on glutathione Sepharose beads, washed with PBS, blocked with 1.5 μM BSA; purified His6-tagged protein added at 1.5 μM for 30 min in PBS with 0.1 mM Zn2+; eluted with 10 mM reduced glutathione; SDS-PAGE and Western blot. Particulars: both partners purified.

The target in test [2] is T2, GST-EPLIN (full length, isoform alpha) (UniProt Q9UHB6-2 1-599).
T2 construct: EPLIN (epithelial protein lost in neoplasm, LIMA1 product), isoform alpha, full length; ORF amplified from Addgene plasmid #40928; numbers count on: isoform alpha; Vector pGEX2T; All EPLIN constructs derive from plasmid #1 (isoform alpha); also called epithelial protein lost in neoplasm; LIMA1 product
The description is as above. As to conditions: both partners purified.

T2 sequence (Q9UHB6 161-759): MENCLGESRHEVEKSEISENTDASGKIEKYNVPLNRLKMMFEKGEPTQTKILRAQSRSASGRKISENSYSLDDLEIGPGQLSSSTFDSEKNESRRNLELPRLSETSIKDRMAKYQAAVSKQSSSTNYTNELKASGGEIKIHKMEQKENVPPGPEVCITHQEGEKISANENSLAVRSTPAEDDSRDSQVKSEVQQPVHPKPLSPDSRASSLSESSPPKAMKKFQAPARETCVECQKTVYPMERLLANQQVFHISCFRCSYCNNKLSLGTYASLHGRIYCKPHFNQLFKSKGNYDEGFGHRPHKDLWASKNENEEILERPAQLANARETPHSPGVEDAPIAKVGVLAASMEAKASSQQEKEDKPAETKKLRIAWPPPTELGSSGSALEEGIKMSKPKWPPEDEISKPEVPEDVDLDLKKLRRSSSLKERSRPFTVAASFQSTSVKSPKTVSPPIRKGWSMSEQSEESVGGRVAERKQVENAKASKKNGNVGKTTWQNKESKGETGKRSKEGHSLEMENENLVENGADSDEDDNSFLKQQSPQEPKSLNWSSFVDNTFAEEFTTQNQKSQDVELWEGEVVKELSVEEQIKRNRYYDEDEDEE

B1: GST-EPLIN LIM (aa 228-288) (domain or fragment)
chain: not shown
notes: EPLIN (LIMA1 product), isoform alpha, residues 228-288, the LIM domain; Vector pGEX2T; also called isolated LIM domain of EPLIN; plasmid #7
For the molecule B1, the binding result in test [1] was “binds”.

B2: His6-SEPT9 (full length, SEPT9i1) (natural protein, UniProt Q9UHD8 1-586, looked up)
chain: MKKSYSGGTRTSSGRLRRLGDSSGPALKRSFEVEEVETPNSTPPRRVQTPLLRATVASSTQKFQDLGVKNSEPSARHVDSLSQRSPKASLRRVELSGPKAAEPVSRRTELSIDISSKQVENAGAIGPSRFGLKRAEVLGHKTPEPAPRRTEITIVKPQESAHRRMEPPASKVPEVPTAPATDAAPKRVEIQMPKPAEAPTAPSPAQTLENSEPAPVSQLQSRLEPKPQPPVAEATPRSQEATEAAPSCVGDMADTPRDAGLKQAPASRNEKAPVDFGYVGIDSILEQMRRKAMKQGFEFNIMVVGQSGLGKSTLINTLFKSKISRKSVQPTSEERIPKTIEIKSITHDIEEKGVRMKLTVIDTPGFGDHINNENCWQPIMKFINDQYEKYLQEEVNINRKKRIPDTRVHCCLYFIPATGHSLRPLDIEFMKRLSKVVNIVPVIAKADTLTLEERVHFKQRITADLLSNGIDVYPQKEFDEDSEDRLVNEKFREMIPFAVVGSDHEYQVNGKRILGRKTKWGTIEVENTTHCEFAYLRDLLIRTHMQNIKDITSSIHFEAYRVKRLNEGSSAMANGMEEKEPEAPEM
notes: derived from plasmid #5 (EGFP-SEPT9, gift of E. Spiliotis); pES is an in-house pET15A-based plasmid for His6-tagged proteins; also called His-SEPT9; purified SEPT9; source: E. coli BL21DE3, purified (HisTrap IMAC, buffered in PBS by PD10)
With B2, in test [2], the binding result is given as “binds”.
